B1: muNS (1-448)-HA (other)
chain: MASTKWGDKPMSVSMSHDGSSIRSAASQFLSGPLFHSTPIPPQRKTVLLKFMIGDELVTVQGALAPFDEYWYDNQPLLAQAVEMLASADRLRQFEHYEKFLLKKGHQITEIMNRLRLFFTDVLKVKMEADALPALAQYLMVGTLEAVSTADSPDACVPVTSKILAKQQTIAKSPGRLDEEEYNVIRSRFLTHEVFDLTSDLPGVQPFMDMYYATVPRADSTGWCVYRRKGLLIHAPDEQFSDLTIFSTRLTASRELQLVAGDVAVACFDLMDVSDIAPSHHASVQEERTLGTSRYSNVTANDHPLVFFSPSALRWAIDHACTDSLVSTRNIRVCVGIDPLVTRWTRDGVQEAAILMDDKLPSAGRARMALRTLLLARRSPMTSFLLGALKQSGGQLMEHYRCDAANRYGSPTVPVSHSPPCSKCPELKEQITKLSSSPLPKIDSNVGP
notes: also called N-terminus domain (muNS(1-448)); N-terminus region
B2: muNS (1-154)-HA (other)
chain: MASTKWGDKPMSVSMSHDGSSIRSAASQFLSGPLFHSTPIPPQRKTVLLKFMIGDELVTVQGALAPFDEYWYDNQPLLAQAVEMLASADRLRQFEHYEKFLLKKGHQITEIMNRLRLFFTDVLKVKMEADALPALAQYLMVGTLEAVSTADSPD
B3: muNS (1-380)-HA (other)
chain: MASTKWGDKPMSVSMSHDGSSIRSAASQFLSGPLFHSTPIPPQRKTVLLKFMIGDELVTVQGALAPFDEYWYDNQPLLAQAVEMLASADRLRQFEHYEKFLLKKGHQITEIMNRLRLFFTDVLKVKMEADALPALAQYLMVGTLEAVSTADSPDACVPVTSKILAKQQTIAKSPGRLDEEEYNVIRSRFLTHEVFDLTSDLPGVQPFMDMYYATVPRADSTGWCVYRRKGLLIHAPDEQFSDLTIFSTRLTASRELQLVAGDVAVACFDLMDVSDIAPSHHASVQEERTLGTSRYSNVTANDHPLVFFSPSALRWAIDHACTDSLVSTRNIRVCVGIDPLVTRWTRDGVQEAAILMDDKLPSAGRARMALRTLLLARRSP

Target: muNS-Mi, region 448-635 of avian reovirus S1133 muNS protein (avian Orthoreovirus (avian reovirus …))
Experiment: co-expression with muNS-Mi in CEF cells, anti-HA immunofluorescence

Binder | binding result
B1 | no binding
B2 | no binding
B3 | no binding

Source: patent US20120301493A1 (UNIVERSIDADE DE SANTIAGO DE COMPOSTELA, published 2012)
